Results from patent US20200115430A1 (I2O THERAPEUTICS, published 2020).
Starred links: 1 amine or outer side, 2 acyl side, 3 side chain; linkers in the order of their positions; H or OH if unused. Positions of bridges follow the written chain, without caps; N, C: chain ends. Groups on a side chain read outwards from the residue. Primed or numbered codes have the meaning given here. No end group written: not given here. *: point of attachment. dpeg″ = —[CO(CH2)O(CH2)2O(CH2)NH]— spacer unit, O=C(COCCOCN[*:1])[*:2]; C20 diacid = O=C(O)CCCCCCCCCCCCCCCCCCC(=O)*; C18 diacid = O=C(O)CCCCCCCCCCCCCCCCC(=O)*; C17 diacid = O=C(O)CCCCCCCCCCCCCCCC(=O)*; C16 diacid = O=C(O)CCCCCCCCCCCCCCC(=O)*; γGlu = O=C(O)[C@H](CCC(=O)[*:2])N[*:1]

T1: human amylin 3 receptor (human, UniProt P30988 25-474; O60896 24-148)
T1 sequence (looked up) 1: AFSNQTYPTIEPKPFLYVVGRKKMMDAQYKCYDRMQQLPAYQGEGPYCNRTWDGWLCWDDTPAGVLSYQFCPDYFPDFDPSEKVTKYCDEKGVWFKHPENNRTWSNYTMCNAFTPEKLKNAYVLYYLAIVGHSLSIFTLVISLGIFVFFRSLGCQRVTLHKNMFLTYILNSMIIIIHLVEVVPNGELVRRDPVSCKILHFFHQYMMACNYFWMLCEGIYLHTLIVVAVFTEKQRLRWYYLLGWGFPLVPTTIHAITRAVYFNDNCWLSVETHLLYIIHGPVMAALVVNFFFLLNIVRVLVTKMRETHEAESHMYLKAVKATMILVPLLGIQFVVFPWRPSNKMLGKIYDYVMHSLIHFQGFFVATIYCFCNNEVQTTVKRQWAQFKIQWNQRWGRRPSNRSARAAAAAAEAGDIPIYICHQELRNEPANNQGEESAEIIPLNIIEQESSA
T1 sequence (looked up) 2: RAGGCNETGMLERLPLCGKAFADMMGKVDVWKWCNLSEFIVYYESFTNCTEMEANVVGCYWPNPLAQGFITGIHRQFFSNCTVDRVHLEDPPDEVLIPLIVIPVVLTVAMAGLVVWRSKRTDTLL

T2: human calcitonin receptor (human, UniProt P30988 25-474)
T2 sequence (looked up): T1 sequence (looked up) 1

B1: Compound A64 (peptide)
peptide: K([γGlu-γGlu-C20 diacid])CNTSTCATQRLANELHKSSNNFGPILPPTKVGSETY-NH2
modifications: disulfide 2-7; N-terminus assumed
SMILES: CC[C@H](C)[C@H](NC(=O)[C@@H]1CCCN1C(=O)CNC(=O)[C@H](Cc1ccccc1)NC(=O)[C@H](CC(N)=O)NC(=O)[C@H](CC(N)=O)NC(=O)[C@H](CO)NC(=O)[C@H](CO)NC(=O)[C@H](CCCCN)NC(=O)[C@H](Cc1c[nH]cn1)NC(=O)[C@H](CC(C)C)NC(=O)[C@H](CCC(=O)O)NC(=O)[C@H](CC(N)=O)NC(=O)[C@H](C)NC(=O)[C@H](CC(C)C)NC(=O)[C@H](CCCNC(=N)N)NC(=O)[C@H](CCC(N)=O)NC(=O)[C@@H](NC(=O)[C@H](C)NC(=O)[C@@H]1CSSC[C@H](NC(=O)[C@@H](N)CCCCNC(=O)CC[C@H](NC(=O)CC[C@H](NC(=O)CCCCCCCCCCCCCCCCCCC(=O)O)C(=O)O)C(=O)O)C(=O)N[C@@H](CC(N)=O)C(=O)N[C@@H]([C@@H](C)O)C(=O)N[C@@H](CO)C(=O)N[C@@H]([C@@H](C)O)C(=O)N1)[C@@H](C)O)C(=O)N[C@@H](CC(C)C)C(=O)N1CCC[C@H]1C(=O)N1CCC[C@H]1C(=O)N[C@H](C(=O)N[C@@H](CCCCN)C(=O)N[C@H](C(=O)NCC(=O)N[C@@H](CO)C(=O)N[C@@H](CCC(=O)O)C(=O)N[C@H](C(=O)N[C@@H](Cc1ccc(O)cc1)C(N)=O)[C@@H](C)O)C(C)C)[C@@H](C)O
B2: Compound A79 (peptide)
peptide: SCNTSTCATQRLANEK(C17 diacid)HKSSNNFGPILPPTKVGSETY-NH2
modifications: disulfide 2-7; N-terminus assumed
SMILES: CC[C@H](C)[C@H](NC(=O)[C@@H]1CCCN1C(=O)CNC(=O)[C@H](Cc1ccccc1)NC(=O)[C@H](CC(N)=O)NC(=O)[C@H](CC(N)=O)NC(=O)[C@H](CO)NC(=O)[C@H](CO)NC(=O)[C@H](CCCCN)NC(=O)[C@H](Cc1c[nH]cn1)NC(=O)[C@H](CCCCNC(=O)CCCCCCCCCCCCCCCC(=O)O)NC(=O)[C@H](CCC(=O)O)NC(=O)[C@H](CC(N)=O)NC(=O)[C@H](C)NC(=O)[C@H](CC(C)C)NC(=O)[C@H](CCCNC(=N)N)NC(=O)[C@H](CCC(N)=O)NC(=O)[C@@H](NC(=O)[C@H](C)NC(=O)[C@@H]1CSSC[C@H](NC(=O)[C@@H](N)CO)C(=O)N[C@@H](CC(N)=O)C(=O)N[C@@H]([C@@H](C)O)C(=O)N[C@@H](CO)C(=O)N[C@@H]([C@@H](C)O)C(=O)N1)[C@@H](C)O)C(=O)N[C@@H](CC(C)C)C(=O)N1CCC[C@H]1C(=O)N1CCC[C@H]1C(=O)N[C@H](C(=O)N[C@@H](CCCCN)C(=O)N[C@H](C(=O)NCC(=O)N[C@@H](CO)C(=O)N[C@@H](CCC(=O)O)C(=O)N[C@H](C(=O)N[C@@H](Cc1ccc(O)cc1)C(N)=O)[C@@H](C)O)C(C)C)[C@@H](C)O
B3: Compound A88 (peptide)
peptide: SCNTSTCATQRLANEK([γGlu-C16 diacid])HKSSNNFGPILPPTKVGSETY-NH2
modifications: disulfide 2-7; N-terminus assumed
SMILES: CC[C@H](C)[C@H](NC(=O)[C@@H]1CCCN1C(=O)CNC(=O)[C@H](Cc1ccccc1)NC(=O)[C@H](CC(N)=O)NC(=O)[C@H](CC(N)=O)NC(=O)[C@H](CO)NC(=O)[C@H](CO)NC(=O)[C@H](CCCCN)NC(=O)[C@H](Cc1c[nH]cn1)NC(=O)[C@H](CCCCNC(=O)CC[C@H](NC(=O)CCCCCCCCCCCCCCC(=O)O)C(=O)O)NC(=O)[C@H](CCC(=O)O)NC(=O)[C@H](CC(N)=O)NC(=O)[C@H](C)NC(=O)[C@H](CC(C)C)NC(=O)[C@H](CCCNC(=N)N)NC(=O)[C@H](CCC(N)=O)NC(=O)[C@@H](NC(=O)[C@H](C)NC(=O)[C@@H]1CSSC[C@H](NC(=O)[C@@H](N)CO)C(=O)N[C@@H](CC(N)=O)C(=O)N[C@@H]([C@@H](C)O)C(=O)N[C@@H](CO)C(=O)N[C@@H]([C@@H](C)O)C(=O)N1)[C@@H](C)O)C(=O)N[C@@H](CC(C)C)C(=O)N1CCC[C@H]1C(=O)N1CCC[C@H]1C(=O)N[C@H](C(=O)N[C@@H](CCCCN)C(=O)N[C@H](C(=O)NCC(=O)N[C@@H](CO)C(=O)N[C@@H](CCC(=O)O)C(=O)N[C@H](C(=O)N[C@@H](Cc1ccc(O)cc1)C(N)=O)[C@@H](C)O)C(C)C)[C@@H](C)O
B4: Compound A65 (peptide)
peptide: K([γGlu-γGlu-C18 diacid])CNTSTCATQRLANELHKSSNNFGPILPPTKVGSETY-NH2
modifications: disulfide 2-7; N-terminus assumed
SMILES: CC[C@H](C)[C@H](NC(=O)[C@@H]1CCCN1C(=O)CNC(=O)[C@H](Cc1ccccc1)NC(=O)[C@H](CC(N)=O)NC(=O)[C@H](CC(N)=O)NC(=O)[C@H](CO)NC(=O)[C@H](CO)NC(=O)[C@H](CCCCN)NC(=O)[C@H](Cc1c[nH]cn1)NC(=O)[C@H](CC(C)C)NC(=O)[C@H](CCC(=O)O)NC(=O)[C@H](CC(N)=O)NC(=O)[C@H](C)NC(=O)[C@H](CC(C)C)NC(=O)[C@H](CCCNC(=N)N)NC(=O)[C@H](CCC(N)=O)NC(=O)[C@@H](NC(=O)[C@H](C)NC(=O)[C@@H]1CSSC[C@H](NC(=O)[C@@H](N)CCCCNC(=O)CC[C@H](NC(=O)CC[C@H](NC(=O)CCCCCCCCCCCCCCCCC(=O)O)C(=O)O)C(=O)O)C(=O)N[C@@H](CC(N)=O)C(=O)N[C@@H]([C@@H](C)O)C(=O)N[C@@H](CO)C(=O)N[C@@H]([C@@H](C)O)C(=O)N1)[C@@H](C)O)C(=O)N[C@@H](CC(C)C)C(=O)N1CCC[C@H]1C(=O)N1CCC[C@H]1C(=O)N[C@H](C(=O)N[C@@H](CCCCN)C(=O)N[C@H](C(=O)NCC(=O)N[C@@H](CO)C(=O)N[C@@H](CCC(=O)O)C(=O)N[C@H](C(=O)N[C@@H](Cc1ccc(O)cc1)C(N)=O)[C@@H](C)O)C(C)C)[C@@H](C)O
B5: Compound A5 (peptide)
peptide: SCNTSTCATQRLANEKHKSSNNFGPILPPTKVGSETY
modifications: L-Lys 16 acylated: K*(γGlu-dpeg-dpeg-(γGlu)4-CO(CH2)14CH3); disulfide bridge Cys2-Cys7; C-terminal amide
B6: Compound A75 (peptide)
peptide: SCNTSTCATQRLANEK(C20 diacid)HKSSNNFGPILPPTKVGSETY-NH2
modifications: disulfide 2-7; N-terminus assumed
SMILES: CC[C@H](C)[C@H](NC(=O)[C@@H]1CCCN1C(=O)CNC(=O)[C@H](Cc1ccccc1)NC(=O)[C@H](CC(N)=O)NC(=O)[C@H](CC(N)=O)NC(=O)[C@H](CO)NC(=O)[C@H](CO)NC(=O)[C@H](CCCCN)NC(=O)[C@H](Cc1c[nH]cn1)NC(=O)[C@H](CCCCNC(=O)CCCCCCCCCCCCCCCCCCC(=O)O)NC(=O)[C@H](CCC(=O)O)NC(=O)[C@H](CC(N)=O)NC(=O)[C@H](C)NC(=O)[C@H](CC(C)C)NC(=O)[C@H](CCCNC(=N)N)NC(=O)[C@H](CCC(N)=O)NC(=O)[C@@H](NC(=O)[C@H](C)NC(=O)[C@@H]1CSSC[C@H](NC(=O)[C@@H](N)CO)C(=O)N[C@@H](CC(N)=O)C(=O)N[C@@H]([C@@H](C)O)C(=O)N[C@@H](CO)C(=O)N[C@@H]([C@@H](C)O)C(=O)N1)[C@@H](C)O)C(=O)N[C@@H](CC(C)C)C(=O)N1CCC[C@H]1C(=O)N1CCC[C@H]1C(=O)N[C@H](C(=O)N[C@@H](CCCCN)C(=O)N[C@H](C(=O)NCC(=O)N[C@@H](CO)C(=O)N[C@@H](CCC(=O)O)C(=O)N[C@H](C(=O)N[C@@H](Cc1ccc(O)cc1)C(N)=O)[C@@H](C)O)C(C)C)[C@@H](C)O

Target: T1, human amylin 3 receptor
Experiment: cell-based or functional assay

Row | pEC50 (cAMP accumulation), 0% HSA [pEC50] | pEC50 (cAMP accumulation), 0.1% HSA [pEC50] | pEC50 (cAMP accumulation), 4% HSA [pEC50] | Binder
1 | 12 | 10.4 | 9.1 | B1
2 | 11.5 | 10.4 | 9.4 | B2
3 | 10.8 | 10.1 | 8.7 | B3
4 | 11.5 | 10.1 | 8.7 | B4
5 | 12.3 | 10.8 | 9.2 | B5
6 | 11.6 | 9.3 | 8 | K([γGlu-γGlu-dpeg″-dpeg″-γGlu-C20 diacid])CNTSTCATQRLANELHKSSNNFGPILPPTKVGSETY-NH2 (disulfide 2-7) [Compound A112]
7 | 11.9 | 10.5 | 8.9 | B6

Target: T2, human calcitonin receptor
Experiment: cell-based or functional assay

Row | pEC50 (cAMP accumulation), 0% HSA [pEC50] | pEC50 (cAMP accumulation), 0.1% HSA [pEC50] | pEC50 (cAMP accumulation), 4% HSA [pEC50] | Binder
8 | 11.2 | 9 | 8.1 | B1
9 | 10.3 | 9.9 | 9.5 | B2
10 | 9.8 | 9 | 7.8 | B3
11 | 10.5 | 9 | 7.9 | B4
12 | 10.8 | 9.5 | 7.8 | B5
13 | 10.9 | 8.5 | 7.5 | K([γGlu-γGlu-dpeg″-dpeg″-γGlu-C20 diacid])CNTSTCATQRLANELHKSSNNFGPILPPTKVGSETY-NH2 (disulfide 2-7) [Compound A112]
14 | 10.8 | 10 | 7.7 | B6
